Measurements taken from article PMC11394972 (International Journal of Molecular Sciences, 2024).

B1: MazF-mt3 (tag-removed form used for crystallization) (enzyme)
chain: GPELMVISRAEIYWADLGPPSGSQPAKRRPVLVIQSDPYNASRLATVIAAVITSNTALAAMPGNVFLPATTTRLPRDSVVNVTAIVTLNKTDLTDRVGEVPASLMHEVDRGLRRVLDL

Tests used:
[1] = biological target: B1; assay: crystal structure; settings: both partners purified
[2] = biological target: the molecule itself; assay: crystal structure

Binder | stoichiometry N [1] | stoichiometry N [2]
LTGQIDRALESIHGTDEAEALAVANAYRVLETMDDEW [MazE-mt3 (Leu46-Trp82) peptide] | 2 toxin chains per antitoxin chain | 
B1 |  | 2 subunits in the oligomer
